This is an account of results in article PMC12383448.

One series has as its target His8 (UniProt position 193, ACLSCHQQIHR). Nature of the series: NMR.
The next series deals with His12 (UniProt position 197, CHQQIHRNAPI). Nature of the series: NMR.
Setting [1] is: 10 °C, not stated for the titration sample (the pH 6.0 zinc-binding NMR samples had no other added buffers or salts), not stated (no added buffer reported for the NMR samples), folded, Zn2+-bound (0.9 mM ZL with equimolar ZnCl2).

With “ZC4H2 zinc finger peptide ZL (ZC4H2-ZL) (Homo sapiens)”, the pKa is 6.9 ± 0.1 with His8 (setting [1]); “near 6.0” with His8 (unfolded, zinc-free ZL peptide); 5.5 ± 0.1 with His12 (setting [1]); “near 6.0” with His12 (unfolded, zinc-free ZL peptide).

Usually pKa stands for the negative logarithm of the acid dissociation constant.
